Biological target: EDB+FN (fibronectin containing the extra-domain B) on WI38-VA13 cells (human, UniProt P02751 32-2477)
Assay: cell-based or functional assay

Sequence of EDB+FN (fibronectin containing the extra-domain B) on WI38-VA13 cells (P02751 32-2477 limits assumed, form in doubt): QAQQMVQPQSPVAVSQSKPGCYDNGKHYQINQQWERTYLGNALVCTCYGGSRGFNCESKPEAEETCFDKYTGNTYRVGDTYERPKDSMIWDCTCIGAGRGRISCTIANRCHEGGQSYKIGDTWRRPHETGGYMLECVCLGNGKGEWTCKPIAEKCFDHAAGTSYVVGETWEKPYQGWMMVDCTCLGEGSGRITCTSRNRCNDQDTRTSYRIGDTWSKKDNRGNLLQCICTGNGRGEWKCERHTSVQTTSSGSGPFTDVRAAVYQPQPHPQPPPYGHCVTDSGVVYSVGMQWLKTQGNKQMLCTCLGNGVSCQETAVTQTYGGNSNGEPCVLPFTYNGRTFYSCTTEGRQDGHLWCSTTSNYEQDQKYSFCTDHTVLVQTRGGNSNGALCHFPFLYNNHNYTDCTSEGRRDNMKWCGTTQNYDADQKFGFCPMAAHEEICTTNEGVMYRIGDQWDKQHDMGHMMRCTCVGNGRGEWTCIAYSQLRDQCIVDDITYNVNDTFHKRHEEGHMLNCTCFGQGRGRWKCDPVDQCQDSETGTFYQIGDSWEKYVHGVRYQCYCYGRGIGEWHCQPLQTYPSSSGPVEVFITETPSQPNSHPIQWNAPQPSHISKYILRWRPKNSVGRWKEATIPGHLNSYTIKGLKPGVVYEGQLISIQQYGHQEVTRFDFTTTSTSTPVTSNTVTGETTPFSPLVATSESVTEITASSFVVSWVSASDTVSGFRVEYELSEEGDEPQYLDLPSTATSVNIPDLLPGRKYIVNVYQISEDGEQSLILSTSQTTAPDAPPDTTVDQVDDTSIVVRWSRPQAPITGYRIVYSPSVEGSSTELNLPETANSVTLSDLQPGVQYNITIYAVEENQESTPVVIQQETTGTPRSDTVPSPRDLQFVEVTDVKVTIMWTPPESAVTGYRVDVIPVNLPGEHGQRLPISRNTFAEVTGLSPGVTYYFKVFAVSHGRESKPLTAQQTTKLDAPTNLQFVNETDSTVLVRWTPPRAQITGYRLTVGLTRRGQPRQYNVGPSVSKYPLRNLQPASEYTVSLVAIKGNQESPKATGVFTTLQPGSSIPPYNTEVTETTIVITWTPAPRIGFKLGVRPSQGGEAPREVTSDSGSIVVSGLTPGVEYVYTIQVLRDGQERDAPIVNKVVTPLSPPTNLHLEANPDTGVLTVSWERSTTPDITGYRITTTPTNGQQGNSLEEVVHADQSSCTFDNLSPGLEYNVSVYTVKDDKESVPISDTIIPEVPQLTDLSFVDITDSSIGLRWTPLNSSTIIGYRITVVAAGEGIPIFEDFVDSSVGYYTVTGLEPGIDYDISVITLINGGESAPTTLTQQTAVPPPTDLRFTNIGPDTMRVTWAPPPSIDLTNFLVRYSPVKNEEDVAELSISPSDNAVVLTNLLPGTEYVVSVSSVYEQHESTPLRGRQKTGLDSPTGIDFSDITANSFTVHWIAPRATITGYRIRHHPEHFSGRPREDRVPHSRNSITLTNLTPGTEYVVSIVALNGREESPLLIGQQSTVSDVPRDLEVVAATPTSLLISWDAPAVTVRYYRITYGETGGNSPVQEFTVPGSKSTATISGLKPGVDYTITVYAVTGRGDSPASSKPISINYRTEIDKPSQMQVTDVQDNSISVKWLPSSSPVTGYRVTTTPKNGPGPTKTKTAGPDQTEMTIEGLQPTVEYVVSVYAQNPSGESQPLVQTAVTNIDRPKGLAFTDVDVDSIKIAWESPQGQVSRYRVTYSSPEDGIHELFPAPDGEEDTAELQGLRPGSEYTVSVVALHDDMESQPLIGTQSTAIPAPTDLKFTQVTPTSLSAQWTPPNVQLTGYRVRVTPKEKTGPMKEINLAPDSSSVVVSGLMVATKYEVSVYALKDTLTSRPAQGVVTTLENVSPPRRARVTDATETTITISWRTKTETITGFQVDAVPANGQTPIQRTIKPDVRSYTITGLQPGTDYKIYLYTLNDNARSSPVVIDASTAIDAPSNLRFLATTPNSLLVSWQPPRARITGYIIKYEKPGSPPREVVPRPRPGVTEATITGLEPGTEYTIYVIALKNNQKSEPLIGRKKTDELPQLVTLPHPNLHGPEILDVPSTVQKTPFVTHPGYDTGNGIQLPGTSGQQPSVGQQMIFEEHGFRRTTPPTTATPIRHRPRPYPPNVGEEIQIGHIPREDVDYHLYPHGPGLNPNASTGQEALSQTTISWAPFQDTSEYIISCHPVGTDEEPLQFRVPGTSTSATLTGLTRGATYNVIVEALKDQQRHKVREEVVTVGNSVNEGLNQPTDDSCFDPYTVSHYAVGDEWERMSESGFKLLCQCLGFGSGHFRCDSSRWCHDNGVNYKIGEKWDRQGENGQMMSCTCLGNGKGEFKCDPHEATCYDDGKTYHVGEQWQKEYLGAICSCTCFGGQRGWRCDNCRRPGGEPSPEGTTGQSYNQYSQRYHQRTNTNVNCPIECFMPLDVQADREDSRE

Binder | Avg IC50, in vitro cytotoxicity on WI38-VA13 cells (Cell Titer Glo, 4 days)
EDB-(K94R)-vc-0101 (antibody, human IgG1, kappa, vc-0101 linker-payload on cysteine residues (conventional conjugation, Method A); vc-0101 linker-payload on cysteine residues (conventional conjugation, Method A); average DAR 3.7 (LC/MS)) heavy: not shown light: EIVLTQSPGTLSLSPGERATLSCRASQSVSSSFLAWYQQKPGQAPRLLIYYASSRATGIPDRFSGSGSGTDFTLTISRLEPEDFAVYYCQQTGRIPPTFGQGTKVEIKRTVAAPSVFIFPPSDEQLKSGTASVVCLLNNFYPREAKVQWKVDNALQSGNSQESVTEQDSKDSTYSLSSTLTLSKADYEKHKVYACEVTHQGLSSPVTKSFNRGEC | 184 ng/ml of antibody
EDB-(κK183C-K94R-K290C)-vc-0101 (antibody, human IgG1, kappa, vc-0101 linker-payload on engineered Cys 183 (κK183C, Kabat), Method B; vc-0101 linker-payload on engineered Cys 290 (K290C, EU index), Method B; average DAR 3.8 (LC/MS)) heavy: not shown light: EIVLTQSPGTLSLSPGERATLSCRASQSVSSSFLAWYQQKPGQAPRLLIYYASSRATGIPDRFSGSGSGTDFTLTISRLEPEDFAVYYCQQTGRIPPTFGQGTKVEIKRTVAAPSVFIFPPSDEQLKSGTASVVCLLNNFYPREAKVQWKVDNALQSGNSQESVTEQDSKDSTYSLSSTLTLSCADYEKHKVYACEVTHQGLSSPVTKSFNRGEC | 216 ng/ml of antibody

Source: patent US20240261423A1 (Pfizer, published 2024)
